Reference: patent publication US20250283063, “NOVEL CRISPR-CAS12I SYSTEMS AND USES THEREOF” (HUIDAGENE THERAPEUTICS (SINGAPORE) PTE. LTD., published 2025)
Where a chain is given by its changes, count along the chain named.

Experiments:
[1] = molecular target: T1, Cas12Max (xCas12i-N243R, v1.1) (N243R); test: cell_activity; PAM TTTG; on-target; details: tags: NLS
T1 chain: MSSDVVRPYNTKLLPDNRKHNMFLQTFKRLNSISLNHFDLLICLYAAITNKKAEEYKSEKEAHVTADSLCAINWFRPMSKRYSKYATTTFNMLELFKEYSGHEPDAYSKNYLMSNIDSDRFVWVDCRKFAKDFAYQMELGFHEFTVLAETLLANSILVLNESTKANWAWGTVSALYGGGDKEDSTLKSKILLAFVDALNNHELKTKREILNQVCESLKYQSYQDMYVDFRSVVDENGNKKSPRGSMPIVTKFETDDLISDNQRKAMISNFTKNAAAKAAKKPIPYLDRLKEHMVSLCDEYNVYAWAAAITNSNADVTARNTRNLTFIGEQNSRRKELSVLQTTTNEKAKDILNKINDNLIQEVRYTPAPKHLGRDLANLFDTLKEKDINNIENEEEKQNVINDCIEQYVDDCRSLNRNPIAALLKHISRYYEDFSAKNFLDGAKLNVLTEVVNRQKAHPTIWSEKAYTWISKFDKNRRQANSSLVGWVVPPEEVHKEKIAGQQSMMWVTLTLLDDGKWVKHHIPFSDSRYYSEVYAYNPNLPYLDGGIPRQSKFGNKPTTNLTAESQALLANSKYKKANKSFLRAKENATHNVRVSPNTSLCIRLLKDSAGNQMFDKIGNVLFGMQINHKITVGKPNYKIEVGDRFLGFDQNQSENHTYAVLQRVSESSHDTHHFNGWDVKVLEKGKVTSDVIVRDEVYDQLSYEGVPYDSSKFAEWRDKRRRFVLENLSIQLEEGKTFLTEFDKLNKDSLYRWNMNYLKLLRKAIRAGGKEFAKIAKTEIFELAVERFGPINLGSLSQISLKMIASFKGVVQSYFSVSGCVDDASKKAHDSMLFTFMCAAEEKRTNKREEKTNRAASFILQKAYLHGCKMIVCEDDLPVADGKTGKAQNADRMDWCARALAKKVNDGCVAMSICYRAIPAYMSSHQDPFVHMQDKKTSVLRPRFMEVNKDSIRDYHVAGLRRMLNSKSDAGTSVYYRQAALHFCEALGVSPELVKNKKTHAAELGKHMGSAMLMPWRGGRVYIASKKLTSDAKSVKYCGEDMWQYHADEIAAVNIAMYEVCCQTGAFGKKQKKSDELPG

[2] = molecular target: T2, xCas12i v5.3 (N243R,D892R); test: cell_activity; PAM TTTG; on-target; details: tags: NLS
T2 chain: T1 chain with D892R

B1: TTR.2 crRNA ; TTR ON.1 (ssRNA ; dsDNA)
RNA: AUGACUCAGAAAUGUGUCCCCAGUUGACACUAGAAGGGAUAUACAAAGUGGA
DNA 1: TTTGTAGAAGGGATATACAAAGTGGA
DNA 2: TCCACTTTGTATATCCCTTCTACAAA
With B1 the activity [1] was 73.8% and the activity [2] was 75.8%.
